The numbers were not newly measured in PMC3079273, which cites them from elsewhere.

Where two headings read alike, the source gives them in different places.

A word on the Ki: it is the dissociation constant of the complex between target and ligand, obtained from inhibition or displacement. For orientation: pKa means the negative logarithm of the acid dissociation constant.

Data set [1] has as its target nitrate reductase (Arabidopsis thaliana) (UniProt P11035).
For data set [2] the target is unchanged. This is another data set of the same source.
In another data set the target is Glu1261 (UniProt position 1261, SKAVGEPPLFL). Put plainly: kinetics. The note with it: free oxidized enzyme reacting with free substrate (xanthine).

Sequence of nitrate reductase (Arabidopsis thaliana) (P11035 whole entry): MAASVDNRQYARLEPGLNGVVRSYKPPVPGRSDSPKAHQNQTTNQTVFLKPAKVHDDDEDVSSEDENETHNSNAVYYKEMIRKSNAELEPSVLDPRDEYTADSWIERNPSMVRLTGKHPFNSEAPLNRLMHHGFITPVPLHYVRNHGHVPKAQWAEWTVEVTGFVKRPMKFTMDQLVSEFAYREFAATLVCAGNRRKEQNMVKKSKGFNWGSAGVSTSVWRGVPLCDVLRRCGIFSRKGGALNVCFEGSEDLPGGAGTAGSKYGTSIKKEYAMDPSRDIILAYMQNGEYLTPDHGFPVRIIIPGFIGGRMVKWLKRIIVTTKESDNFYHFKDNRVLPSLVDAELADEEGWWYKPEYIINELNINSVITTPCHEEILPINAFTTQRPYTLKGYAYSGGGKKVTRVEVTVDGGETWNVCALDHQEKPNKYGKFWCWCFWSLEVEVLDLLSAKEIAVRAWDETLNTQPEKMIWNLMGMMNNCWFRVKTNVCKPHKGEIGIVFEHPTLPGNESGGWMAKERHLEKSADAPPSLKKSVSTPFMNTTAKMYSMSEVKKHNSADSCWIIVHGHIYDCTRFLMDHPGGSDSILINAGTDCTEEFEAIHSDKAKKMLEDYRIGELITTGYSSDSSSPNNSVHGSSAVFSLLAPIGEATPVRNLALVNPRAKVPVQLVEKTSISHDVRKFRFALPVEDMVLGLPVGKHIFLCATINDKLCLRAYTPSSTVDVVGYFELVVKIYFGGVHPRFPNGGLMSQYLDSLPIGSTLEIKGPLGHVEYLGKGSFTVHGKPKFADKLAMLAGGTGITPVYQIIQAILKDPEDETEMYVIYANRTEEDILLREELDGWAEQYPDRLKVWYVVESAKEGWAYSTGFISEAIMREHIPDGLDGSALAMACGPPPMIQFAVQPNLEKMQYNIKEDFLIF
Sequence of 14-3-3 omega (Q01525 whole entry): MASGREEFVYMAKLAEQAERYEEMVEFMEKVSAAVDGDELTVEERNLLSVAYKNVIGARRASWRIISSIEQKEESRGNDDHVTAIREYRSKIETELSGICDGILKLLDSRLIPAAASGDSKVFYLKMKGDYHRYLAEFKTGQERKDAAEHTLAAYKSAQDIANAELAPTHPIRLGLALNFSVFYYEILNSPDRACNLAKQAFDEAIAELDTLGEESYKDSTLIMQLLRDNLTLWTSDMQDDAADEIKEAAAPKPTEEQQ
Sequence of 14-3-3 lambda (P48349 whole entry): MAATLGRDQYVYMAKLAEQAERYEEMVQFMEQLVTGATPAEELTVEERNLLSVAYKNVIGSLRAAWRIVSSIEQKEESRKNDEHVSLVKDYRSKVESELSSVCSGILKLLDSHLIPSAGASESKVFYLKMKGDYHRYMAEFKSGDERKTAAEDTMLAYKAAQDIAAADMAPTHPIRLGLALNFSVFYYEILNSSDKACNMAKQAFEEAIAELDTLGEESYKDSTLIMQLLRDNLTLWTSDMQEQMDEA

Consider 14-3-3 lambda (from UniProt P48349), for which, in data set [1], the Ki is 80 nM.

For 14-3-3 omega (from UniProt Q01525), in data set [2], the Ki was 60 nM.

In the case of “Xanthine oxidoreductase (xanthine oxidase / xanthine dehydrogenase) (Bos taurus)”, the pKa with Glu1261 is 6.6.
